B1: Zinc finger protein Aiolos (Homo sapiens), Q9UKT9 (parent)
chain: MEDIQTNAELKSTQEQSVPAESAAVLNDYSLTKSHEMENVDSGEGPANEDEDIGDDSMKVKDEYSERDENVLKSEPMGNAEEPEIPYSYSREYNEYENIKLERHVVSFDSSRPTSGKMNCDVCGLSCISFNVLMVHKRSHTGERPFQCNQCGASFTQKGNLLRHIKLHTGEKPFKCHLCNYACQRRDALTGHLRTHSVEKPYKCEFCGRSYKQRSSLEEHKERCRTFLQSTDPGDTASAEARHIKAEMGSERALVLDRLASNVAKRKSSMPQKFIGEKRHCFDVNYNSSYMYEKESELIQTRMMDQAINNAISYLGAEALRPLVQTPPAPTSEMVPVISSMYPIALTRAEMSNGAPQELEKKSIHLPEKSVPSERGLSPNNSGHDSTDTDSNHEERQNHIYQQNHMVLSRARNGMPLLKEVPRSYELLKPPPICPRDSVKVINKEGEVMDVYRCDHCRVLFLDYVMFTIHMGCHGFRDPFECNMCGYRSHDRYEFSSHIARGEHRALLK
partner: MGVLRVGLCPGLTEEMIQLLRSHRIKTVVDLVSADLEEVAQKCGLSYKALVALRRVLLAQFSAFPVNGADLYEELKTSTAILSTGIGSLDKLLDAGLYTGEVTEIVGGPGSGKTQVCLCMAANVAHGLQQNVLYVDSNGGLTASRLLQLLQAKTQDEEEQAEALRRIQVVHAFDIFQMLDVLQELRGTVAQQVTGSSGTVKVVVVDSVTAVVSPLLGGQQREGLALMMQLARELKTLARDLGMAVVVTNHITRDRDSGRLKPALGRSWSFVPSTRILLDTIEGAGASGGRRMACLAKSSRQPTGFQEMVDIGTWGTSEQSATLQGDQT
B2: Isoform 1 of Acetyl-CoA acetyltransferase, cytosolic (Homo sapiens), Q9BWD1-1 (parent)
chain: MNAGSDPVVIVSAARTIIGSFNGALAAVPVQDLGSTVIKEVLKRATVAPEDVSEVIFGHVLAAGCGQNPVRQASVGAGIPYSVPAWSCQMICGSGLKAVCLAVQSIGIGDSSIVVAGGMENMSKAPHLAYLRTGVKIGEMPLTDSILCDGLTDAFHNCHMGITAENVAKKWQVSREDQDKVAVLSQNRTENAQKAGHFDKEIVPVLVSTRKGLIEVKTDEFPRHGSNIEAMSKLKPYFLTDGTGTVTPANASGINDGAAAVVLMKKSEADKRGLTPLARIVSWSQVGVEPSIMGIGPIPAIKQAVTKAGWSLEDVDIFEINEAFAAVSAAIVKELGLNPEKVNIEGGAIALGHPLGASGCRILVTLLHTLERMGRSRGVAALCIGGGMGIAMCVQRE
B3: Centrosomal protein of 55 kDa (Homo sapiens), Q53EZ4 (parent)
chain: MSSRSTKDLIKSKWGSKPSNSKSETTLEKLKGEIAHLKTSVDEITSGKGKLTDKERHRLLEKIRVLEAEKEKNAYQLTEKDKEIQRLRDQLKARYSTTTLLEQLEETTREGERREQVLKALSEEKDVLKQQLSAATSRIAELESKTNTLRLSQTVAPNCFNSSINNIHEMEIQLKDALEKNQQWLVYDQQREVYVKGLLAKIFELEKKTETAAHSLPQQTKKPESEGYLQEEKQKCYNDLLASAKKDLEVERQTITQLSFELSEFRRKYEETQKEVHNLNQLLYSQRRADVQHLEDDRHKTEKIQKLREENDIARGKLEEEKKRSEELLSQVQFLYTSLLKQQEEQTRVALLEQQMQACTLDFENEKLDRQHVQHQLHVILKELRKARNQITQLESLKQLHEFAITEPLVTFQGETENREKVAASPKSPTAALNESLVECPKCNIQYPATEHRDLLVHVEYCSK
partner: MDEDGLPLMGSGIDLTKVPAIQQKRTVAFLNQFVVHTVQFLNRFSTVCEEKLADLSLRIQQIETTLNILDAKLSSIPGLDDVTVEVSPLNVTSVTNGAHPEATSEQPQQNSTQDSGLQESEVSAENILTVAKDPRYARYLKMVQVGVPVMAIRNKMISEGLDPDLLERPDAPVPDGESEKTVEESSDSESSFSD
B4: Tuftelin-interacting protein 11 (Homo sapiens), Q9UBB9 (parent)
chain: MSLSHLYRDGEGRIDDDDDERENFEITDWDLQNEFNPNRQRHWQTKEEATYGVWAERDSDDERPSFGGKRARDYSAPVNFISAGLKKGAAEEAELEDSDDEEKPVKQDDFPKDFGPRKLKTGGNFKPSQKGFAGGTKSFMDFGSWERHTKGIGQKLLQKMGYVPGRGLGKNAQGIINPIEAKQRKGKGAVGAYGSERTTQSMQDFPVVDSEEEAEEEFQKELSQWRKDPSGSKKKPKYSYKTVEELKAKGRISKKLTAPQKELSQVKVIDMTGREQKVYYSYSQISHKHNVPDDGLPLQSQQLPQSGKEAKAPGFALPELEHNLQLLIDLTEQEIIQNDRQLQYERDMVVNLFHELEKMTEVLDHEERVISNLSKVLEMVEECERRMQPDCSNPLTLDECARIFETLQDKYYEEYRMSDRVDLAVAIVYPLMKEYFKEWDPLKDCTYGTEIISKWKSLLENDQLLSHGGQDLSADAFHRLIWEVWMPFVRNIVTQWQPRNCDPMVDFLDSWVHIIPVWILDNILDQLIFPKLQKEVENWNPLTDTVPIHSWIHPWLPLMQARLEPLYSPIRSKLSSALQKWHPSDSSAKLILQPWKDVFTPGSWEAFMVKNIVPKLGMCLGELVINPHQQHMDAFYWVIDWEGMISVSSLVGLLEKHFFPKWLQVLCSWLSNSPNYEEITKWYLGWKSMFSDQVLAHPSVKDKFNEALDIMNRAVSSNVGAYMQPGARENIAYLTHTERRKDFQYEAMQERREAENMAQRGIGVAASSVPMNFKDLIETKAEEHNIVFMPVIGKRHEGKQLYTFGRIVIYIDRGVVFVQGEKTWVPTSLQSLIDMAK
partner: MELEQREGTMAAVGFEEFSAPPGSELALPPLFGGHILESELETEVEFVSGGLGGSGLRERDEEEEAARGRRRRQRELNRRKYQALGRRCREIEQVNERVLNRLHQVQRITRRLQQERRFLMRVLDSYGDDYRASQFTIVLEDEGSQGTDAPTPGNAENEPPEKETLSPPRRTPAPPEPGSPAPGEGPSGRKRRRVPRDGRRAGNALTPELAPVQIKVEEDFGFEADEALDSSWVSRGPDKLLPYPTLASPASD
B5: RUN and FYVE domain-containing protein 1 (Homo sapiens), Q96T51-2 (parent)
chain: MMEERANLMHMMKLSIKVLLQSALSLGRSLDADHAPLQQFFVVMEHCLKHGLKVKKSFIGQNKSFFGPLELVEKLCPEASDIATSVRNLPELKTAVGRGRAWLYLALMQKKLADYLKVLIDNKHLLSEFYEPEALMMEEEGMVIVGLLVGLNVLDANLCLKGEDLDSQVGVIDFSLYLKDVQDLDGGKEHERITDVLDQKNYVEELNRHLSCTVGDLQTKIDGLEKTNSKLQEELSAATDRICSLQEEQQQLREQNELIRERSEKSVEITKQDTKVELETYKQTRQGLDEMYSDVWKQLKEEKKVRLELEKELELQIGMKTEMEIAMKLLEKDTHEKQDTLVALRQQLEEVKAINLQMFHKAQNAESSLQQKNEAITSFEGKTNQVMSSMKQMEERLQHSERARQGAEERSHKLQQELGGRIGALQLQLSQLHEQCSSLEKELKSEKEQRQALQRELQHEKDTSSLLRMELQQVEGLKKELRELQDEKAELQKICEEQEQALQEMGLHLSQSKLKMEDIKEVNQALKGHAWLKDDEATHCRQCEKEFSISRRKHHCRNCGHIFCNTCSSNELALPSYPKPVRVCDSCHTLLLQRCSSTAS
partner: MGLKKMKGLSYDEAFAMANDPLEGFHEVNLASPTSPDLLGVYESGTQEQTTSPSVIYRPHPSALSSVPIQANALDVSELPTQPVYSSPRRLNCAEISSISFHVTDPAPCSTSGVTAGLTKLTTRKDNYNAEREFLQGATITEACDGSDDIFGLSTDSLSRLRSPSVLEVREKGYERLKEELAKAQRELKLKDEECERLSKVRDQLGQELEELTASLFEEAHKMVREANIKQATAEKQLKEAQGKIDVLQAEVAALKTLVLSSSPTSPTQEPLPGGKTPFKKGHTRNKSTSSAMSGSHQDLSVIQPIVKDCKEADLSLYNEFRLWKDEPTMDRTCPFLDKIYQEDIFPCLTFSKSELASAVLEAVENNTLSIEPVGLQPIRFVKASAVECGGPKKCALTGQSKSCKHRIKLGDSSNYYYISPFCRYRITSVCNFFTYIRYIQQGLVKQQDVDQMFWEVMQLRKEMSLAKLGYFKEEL
B6: Ligand of Numb protein X 2 (Homo sapiens), Q8N448 (parent)
chain: MGTTSDEMVSVEQTSSSSLNPLCFECGQQHWTRENHLYNYQNEVDDDLVCHICLQPLLQPLDTPCGHTFCYKCLRNFLQEKDFCPLDRKRLHFKLCKKSSILVHKLLDKLLVLCPFSSVCKDVMQRCDLEAHLKNRCPGASHRRVALERRKTSRTQAEIENENGPTLLDPAGTLSPEADCLGTGAVPVERHLTSASLSTWSEEPGLDNPAFEESAGADTTQQPLSLPEGEITTIEIHRSNPYIQLGISIVGGNETPLINIVIQEVYRDGVIARDGRLLAGDQILQVNNYNISNVSHNYARAVLSQPCNTLHLTVLRERRFGNRAHNHSDSNSPREEIFQVALHKRDSGEQLGIKLVRRTDEPGVFILDLLEGGLAAQDGRLSSNDRVLAINGHDLKYGTPELAAQIIQASGERVNLTIARPGKPQPGNTIREAGNHSSSSQHHTPPPYYSRPSSHKDLTQCVTCQEKHITVKKEPHESLGMTVAGGRGSKSGELPIFVTSVPPHGCLARDGRIKRGDVLLNINGIDLTNLSHSEAVAMLKASAASPAVALKALEVQIVEEATQNAEEQPSTFSENEYDASWSPSWVMWLGLPSTLHSCHDIVLRRSYLGSWGFSIVGGYEENHTNQPFFIKTIVLGTPAYYDGRLKCGDMIVAVNGLSTVGMSHSALVPMLKEQRNKVTLTVICWPGSLV
partner: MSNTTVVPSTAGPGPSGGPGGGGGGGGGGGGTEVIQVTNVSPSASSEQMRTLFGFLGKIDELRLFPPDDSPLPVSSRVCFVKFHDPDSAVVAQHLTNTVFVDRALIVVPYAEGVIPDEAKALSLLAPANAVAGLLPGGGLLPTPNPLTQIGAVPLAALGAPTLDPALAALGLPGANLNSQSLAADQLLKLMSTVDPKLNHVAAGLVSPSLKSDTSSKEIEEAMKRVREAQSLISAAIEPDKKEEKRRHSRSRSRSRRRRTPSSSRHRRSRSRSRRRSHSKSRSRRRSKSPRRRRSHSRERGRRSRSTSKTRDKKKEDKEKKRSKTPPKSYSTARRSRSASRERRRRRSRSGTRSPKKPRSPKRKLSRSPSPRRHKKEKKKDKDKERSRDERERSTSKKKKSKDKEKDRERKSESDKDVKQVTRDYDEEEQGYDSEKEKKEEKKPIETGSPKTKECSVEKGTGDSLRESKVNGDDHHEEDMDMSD
B7: E3 ubiquitin-protein ligase Midline-1 (Homo sapiens), O15344 (parent)
chain: METLESELTCPICLELFEDPLLLPCAHSLCFNCAHRILVSHCATNESVESITAFQCPTCRHVITLSQRGLDGLKRNVTLQNIIDRFQKASVSGPNSPSETRRERAFDANTMTSAEKVLCQFCDQDPAQDAVKTCVTCEVSYCDECLKATHPNKKPFTGHRLIEPIPDSHIRGLMCLEHEDEKVNMYCVTDDQLICALCKLVGRHRDHQVAALSERYDKLKQNLESNLTNLIKRNTELETLLAKLIQTCQHVEVNASRQEAKLTEECDLLIEIIQQRRQIIGTKIKEGKVMRLRKLAQQIANCKQCIERSASLISQAEHSLKENDHARFLQTAKNITERVSMATASSQVLIPEINLNDTFDTFALDFSREKKLLECLDYLTAPNPPTIREELCTASYDTITVHWTSDDEFSVVSYELQYTIFTGQANVVSLCNSADSWMIVPNIKQNHYTVHGLQSGTKYIFMVKAINQAGSRSSEPGKLKTNSQPFKLDPKSAHRKLKVSHDNLTVERDESSSKKSHTPERFTSQGSYGVAGNVFIDSGRHYWEVVISGSTWYAIGLAYKSAPKHEWIGKNSASWALCRCNNNWVVRHNSKEIPIEPAPHLRRVGILLDYDNGSIAFYDALNSIHLYTFDVAFAQPVCPTFTVWNKCLTIITGLPIPDHLDCTEQLP
partner: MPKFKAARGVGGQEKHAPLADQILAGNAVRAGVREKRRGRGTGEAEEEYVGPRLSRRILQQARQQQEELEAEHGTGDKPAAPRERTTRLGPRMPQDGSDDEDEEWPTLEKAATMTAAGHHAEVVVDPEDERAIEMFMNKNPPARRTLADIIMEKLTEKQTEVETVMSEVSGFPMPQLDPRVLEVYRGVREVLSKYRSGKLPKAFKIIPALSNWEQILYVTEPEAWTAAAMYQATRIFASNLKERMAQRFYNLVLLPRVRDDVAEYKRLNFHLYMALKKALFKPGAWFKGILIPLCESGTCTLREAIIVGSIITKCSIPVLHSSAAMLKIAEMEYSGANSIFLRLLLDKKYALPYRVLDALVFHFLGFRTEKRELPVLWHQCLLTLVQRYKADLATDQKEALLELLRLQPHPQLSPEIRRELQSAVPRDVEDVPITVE

Variants of: B1
Details: with ra51d_human RAD51D

Variant	effect of a mutation on the interaction
A24V	with no effect
N119D	with no effect

Variants of: B2
Details: with lnx1_human LNX1, Q8TBB1
Chain of lnx1_human LNX1, Q8TBB1 (Q8TBB1 whole entry): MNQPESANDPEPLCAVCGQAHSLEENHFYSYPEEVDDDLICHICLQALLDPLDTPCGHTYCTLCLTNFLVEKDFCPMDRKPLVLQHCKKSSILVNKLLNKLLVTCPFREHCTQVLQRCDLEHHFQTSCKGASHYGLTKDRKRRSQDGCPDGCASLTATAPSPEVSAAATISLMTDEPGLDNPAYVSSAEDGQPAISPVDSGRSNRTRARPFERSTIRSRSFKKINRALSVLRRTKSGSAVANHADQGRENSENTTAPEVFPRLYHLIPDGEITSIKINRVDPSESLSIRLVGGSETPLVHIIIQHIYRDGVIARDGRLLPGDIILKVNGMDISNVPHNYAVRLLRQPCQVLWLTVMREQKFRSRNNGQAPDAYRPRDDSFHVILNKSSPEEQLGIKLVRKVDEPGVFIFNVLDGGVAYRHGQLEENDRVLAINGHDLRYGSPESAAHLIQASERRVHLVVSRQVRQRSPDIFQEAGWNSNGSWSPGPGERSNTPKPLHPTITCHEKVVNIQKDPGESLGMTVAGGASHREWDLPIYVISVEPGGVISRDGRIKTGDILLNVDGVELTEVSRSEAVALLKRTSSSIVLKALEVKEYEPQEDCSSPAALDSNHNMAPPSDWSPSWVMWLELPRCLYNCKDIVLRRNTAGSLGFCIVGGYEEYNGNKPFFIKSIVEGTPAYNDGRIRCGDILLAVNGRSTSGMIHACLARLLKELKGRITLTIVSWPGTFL

Variant	effect of a mutation on the interaction
G161S	with no effect

Variants of: B3
Details: with wasc3_human WASHC3, Q9Y3C0

Variant	effect of a mutation on the interaction
L59F	with no effect

Variants of: B4
Details: with tfpt_human TFPT

Variant	effect of a mutation on the interaction
R8Q	with no effect
S688L	with no effect

Variants of: B5
Details: with rab3i_human RAB3IP

Variant	effect of a mutation on the interaction
C159F	with no effect

Variants of: B6
Details: with srs11_human SRSF11, Q05519

Variant	effect of a mutation on the interaction
S141A	with no effect
S198P	with no effect
Y266C	disrupting interaction strength

Variants of: B7
Details: with byst_human BYSL

Variant	effect of a mutation on the interaction
D84N	disrupting interaction strength
